According to US20230212319A1, “NOVEL ANTIGEN BINDING DOMAINS AND SYNTHETIC ANTIGEN RECEPTORS INCORPORATING THE SAME” (University of Southern California, priority 2020, published 2023):

B1: 22075 (protein)
chain: MALPVTALLLPLALLLHAARPQVQLVESGGGLVQPGGSLRLSCAASGFTFTNHAMSWVRQAPGKGLELVSSISGNGRTTYYADSVKGRFTISRDISKNTLDLQMNSLRAEDTAVYYCAKDGGETLVDSRGQGTLVTVSSLEGQPKANPTVTLFPPSSEELQANKATLVCLISDFYPGAVTVAWKADGSPVKAGVETTKPSKQSNNKYAASSYLSLTPEQWKSHRSYSCQVTHEGSTVEKTVAPTECSGRADCGFTSESYQQGVLSATILYEILLGKATLYAVLVSALVLMAMVKRKDSRGRAKRSGSGATNFSLLKQAGDVEENPGPTSMDWIWRILFLVGAATGAHSFEEVQLLESGGGLVQPGGSLRLSCAASGFTFSSYAMSWVRQAPGKGLEWVSSISGSGDYIYYADSVKGRFTISRDISKNTLYLQMNSLRAEDTAVYYCAKEGTGANSSLADYRGQGTLVTVSSTRIQNPDPAVYQLRDSKSSDKSVCLFTDFDSQTNVSQSKDSDVYITDKCVLDMRSMDFKSNSAVAWSNKSDFACANAFNNSIIPEDTFFPSPESSCDVKLVEKSFETDTNLNFQNLSVIGFRILLLKVAGFNLLMTLRLWSSRAKRSGSGVKQTLNFDLLKLAGDVESNPGPSRGHMTEYKPTVRLATRDDVPRAVRTLAAAFADYPATRHTVDPDRHIERVTELQELFLTRVGLDIGKVWVADDGAAVAVWTTPESVEAGAVFAEIGPRMAELSGSRLAAQQQMEGLLAPHRPKEPAWFLATVGVSPDHQGKGLGSAVVLPGVEAAERAGVPAFLETSAPRNLPFYERLGFTVTADVEVPEGPRTWCMTRKPGA
B2: 21990 (protein)
chain: MALPVTALLLPLALLLHAARPQVQLVESGGGLVQPGGSLRLSCAASGFTFTNHAMSWVRQAPGKGLELVSSISGNGRTTYYADSVKGRFTISRDISKNTLDLQMNSLRAEDTAVYYCAKDGGETLVDSRGQGTLVTVSSLEDLKNVFPPEVAVFEPSEAEISHTQKATLVCLATGFYPDHVELSWWVNGKEVHSGVCTDPQPLKEQPALNDSRYCLSSRLRVSATFWQNPRNHFRCQVQFYGLSENDEWTQDRAKPVTQIVSAEAWGRADCGFTSESYQQGVLSATILYEILLGKATLYAVLVSALVLMAMVKRKDSRGRAKRSGSGATNFSLLKQAGDVEENPGPTSMDWIWRILFLVGAATGAHSFEVQLLESGGGLIQPGGSLRLSCAASGFTFSSHAMTWVRQAPGKGLEWVSAISGSGDYTHYADSVKGRFTISRDNSKNTVYLQMNSLRAEDSAVYYCAKDEDGGSLLGHRGQGTLVTVSSTRIQNPDPAVYQLRDSKSSDKSVCLFTDFDSQTNVSQSKDSDVYITDKCVLDMRSMDFKSNSAVAWSNKSDFACANAFNNSIIPEDTFFPSPESSCDVKLVEKSFETDTNLNFQNLSVIGFRILLLKVAGFNLLMTLRLWSSRAKRSGSGVKQTLNFDLLKLAGDVESNPGPSRGHMTEYKPTVRLATRDDVPRAVRTLAAAFADYPATRHTVDPDRHIERVTELQELFLTRVGLDIGKVWVADDGAAVAVWTTPESVEAGAVFAEIGPRMAELSGSRLAAQQQMEGLLAPHRPKEPAWFLATVGVSPDHQGKGLGSAVVLPGVEAAERAGVPAFLETSAPRNLPFYERLGFTVTADVEVPEGPRTWCMTRKPGA
B3: 22063 (protein)
chain: MALPVTALLLPLALLLHAARPQVQLVESGGGLVQPGGSLRLSCAASGFTFTNHAMSWVRQAPGKGLELVSSISGNGRTTYYADSVKGRFTISRDISKNTLDLQMNSLRAEDTAVYYCAKDGGETLVDSRGQGTLVTVSSLEAAAKEDLKNVFPPEVAVFEPSEAEISHTQKATLVCLATGFYPDHVELSWWVNGKEVHSGVCTDPQPLKEQPALNDSRYCLSSRLRVSATFWQNPRNHFRCQVQFYGLSENDEWTQDRAKPVTQIVSAEAWGRADCGFTSESYQQGVLSATILYEILLGKATLYAVLVSALVLMAMVKRKDSRGRAKRSGSGATNFSLLKQAGDVEENPGPTSMDWIWRILFLVGAATGAHSFEEVQLLESGGGLVQPGGSLRLSCAASGFTFSSYAMSWVRQAPGKGLEWVSSISGSGDYIYYADSVKGRFTISRDISKNTLYLQMNSLRAEDTAVYYCAKEGTGANSSLADYRGQGTLVTVSSTRIQNPDPAVYQLRDSKSSDKSVCLFTDFDSQTNVSQSKDSDVYITDKCVLDMRSMDFKSNSAVAWSNKSDFACANAFNNSIIPEDTFFPSPESSCDVKLVEKSFETDTNLNFQNLSVIGFRILLLKVAGFNLLMTLRLWSSRAKRSGSGVKQTLNFDLLKLAGDVESNPGPSRGHMTEYKPTVRLATRDDVPRAVRTLAAAFADYPATRHTVDPDRHIERVTELQELFLTRVGLDIGKVWVADDGAAVAVWTTPESVEAGAVFAEIGPRMAELSGSRLAAQQQMEGLLAPHRPKEPAWFLATVGVSPDHQGKGLGSAVVLPGVEAAERAGVPAFLETSAPRNLPFYERLGFTVTADVEVPEGPRTWCMTRKPGA
B4: 22064 (protein)
chain: MALPVTALLLPLALLLHAARPQVQLVESGGGLVQPGGSLRLSCAASGFTFTNHAMSWVRQAPGKGLELVSSISGNGRTTYYADSVKGRFTISRDISKNTLDLQMNSLRAEDTAVYYCAKDGGETLVDSRGQGTLVTVSSLEGGGGSGGGGSGGGGSVEDLKNVFPPEVAVFEPSKAEIAHTQKATLVCLATGFYPDHVELSWWVNGKEVHSGVCTDPQPLKEQPALNDSRYCLSSRLRVSATFWQNPRNHFRCQVQFYGLSENDEWTQDRAKPVTQIVSAEAWGRADCGITSASYHQGVLSATILYEILLGKATLYAVLVSALVLMAMVKRKDSRGRAKRSGSGATNFSLLKQAGDVEENPGPTSMDWIWRILFLVGAATGAHSFEEVQLLESGGGLVQPGGSLRLSCAASGFTFSSYAMSWVRQAPGKGLEWVSSISGSGDYIYYADSVKGRFTISRDISKNTLYLQMNSLRAEDTAVYYCAKEGTGANSSLADYRGQGTLVTVSSTRIQNPDPAVYQLRDSKSSDKSVCLFTDFDSQTNVSQSKDSDVYITDKCVLDMRSMDFKSNSAVAWSNKSDFACANAFNNSIIPEDTFFPSPESSCDVKLVEKSFETDTNLNFQNLSVIGFRILLLKVAGFNLLMTLRLWSSRAKRSGSGVKQTLNFDLLKLAGDVESNPGPSRGHMTEYKPTVRLATRDDVPRAVRTLAAAFADYPATRHTVDPDRHIERVTELQELFLTRVGLDIGKVWVADDGAAVAVWTTPESVEAGAVFAEIGPRMAELSGSRLAAQQQMEGLLAPHRPKEPAWFLATVGVSPDHQGKGLGSAVVLPGVEAAERAGVPAFLETSAPRNLPFYERLGFTVTADVEVPEGPRTWCMTRKPGA
B5: 22098 (protein)
chain: MALPVTALLLPLALLLHAARPQVQLVESGGGLVQPGGSLRLSCAASGFTFTNHAMSWVRQAPGKGLELVSSISGNGRTTYYADSVKGRFTISRDISKNTLDLQMNSLRAEDTAVYYCAKDGGETLVDSRGQGTLVTVSSLEGQPKANPTVTLFPPSSEELQANKATLVCLISDFYPGAVTVAWKADGSPVKAGVETTKPSKQSNNKYAASSYLSLTPEQWKSHRSYSCQVTHEGSTVEKTVAPTECSPIKTDVITMDPKDNCSKDANDTLLLQLTNTSAYYMYLLLLLKSVVYFAIITCCLLRRTAFCCNGEKSRAKRSGSGATNFSLLKQAGDVEENPGPTSMDWIWRILFLVGAATGAHSFEEVQLLESGGGLVQPGGSLRLSCAASGFTFSSYAMSWVRQAPGKGLEWVSSISGSGDYIYYADSVKGRFTISRDISKNTLYLQMNSLRAEDTAVYYCAKEGTGANSSLADYRGQGTLVTVSSTRASTKGPSVFPLAPSSKSTSGGTAALGCLVKDYFPEPVTVSWNSGALTSGVHTFPAVLQSSGLYSLSSVVTVPSSSLGTQTYICNVNHKPSNTKVDKRVEPKSCEVKTDSTDHVKPKETENTKQPSKSCHKPKAIVHTEKVNMMSLTVLGLRMLFAKTVAVNFLLTAKLFFLRAKRSGSGVKQTLNFDLLKLAGDVESNPGPSRGHMTEYKPTVRLATRDDVPRAVRTLAAAFADYPATRHTVDPDRHIERVTELQELFLTRVGLDIGKVWVADDGAAVAVWTTPESVEAGAVFAEIGPRMAELSGSRLAAQQQMEGLLAPHRPKEPAWFLATVGVSPDHQGKGLGSAVVLPGVEAAERAGVPAFLETSAPRNLPFYERLGFTVTADVEVPEGPRTWCMTRKPGA

What follows are molecules tested on L363 cells (assay: JNG assay, co-culture with L363 cells). Settings: co-culture with L363.
Assay type: cell-based
Experimental: Cellular supernatant is collected and assayed for the induction of cytokines (e.g., IL2).
JNG (Jurkat cells expressing EGFP under an NFAT promoter) were infected with lentiviral vectors encoding different single chain and multi-chain SARs by spinfection in the presence of 8 µg/ml of Polybrene® (Sigma, Catalog no. H9268). The Jurkat-NFAT-GFP cells are engineered in such a way that the IL-2 promoter, which carries NFAT binding sites, is cloned upstream of the GFP gene. These cells have been used to study signaling via TCR and CAR. The different SARs were stably expressed in Jurkat NFAT-GFP cells by lentiviral mediated gene transfer, followed by selection with puromycin or blasticidin. No drug selection was used in case the construct lacked an antibiotic resistance gene. The SAR-expressing Jurkat-NFAT-GFP cells were cocultured with the target cells at E:T ratio of approximately 1:2 for approximately 4 hours to 18 hours. When the interaction between SIRs and their target antigen results in activation of the NFAT pathway, GFP expression is induced. […] GFP expression was monitored by FACS analysis. The Jurkat-NFAT-GFP (parental) cells were used as control. The structure of different constructs can be determined based on their names. […] The sequence of the other constructs in the table can be similarly determined from their names and by referring to the different Tables of this disclosure that provide the names and SEQ ID NO of the different modules. Alternatively, the composition and modular architecture of the different SAR constructs can be determined from their sequences by bioinformatics tools, including using nucleic acid and amino acids homology searches. A SAR is considered positive in the assay in case the SAR expressing Jurkat-NFAT-GFP cells show greater % GFP positive cells when cultured with the target cell line as compared to parental Jurkat-NFAT-GFP cells. […] In general, the number +/-, +, 2+, 3+, 4+, 5+ refer to approximately 5%, 10%, 20%, 30%, 40% and 50% GFP positive cells. The % of GFP induction in the above assay is dependent not only the relative strength of the SAR but also, among other factors, on the relative level of expression of the SAR in the JNG cells and the relative level of expression of the target antigen in the target cell line. To control for the difference in gene transduction efficiency of the different SAR constructs, the experiment was conducted with JNG cells transduced with SAR constructs co-expressing a drug resistance gene (e.g., puromycin or PAC) followed by drug selection to generate a stable population of SAR-expressing cells. It is to be noted that the drug resistance gene (e.g., PAC) in the SAR constructs is optional and in vivo studies were conducted with SAR constructs lacking the PAC gene.

Molecule	NFAT-GFP ASSAY: L363
B1	+/- (refer to approximately 5%, 10%, 20%, 30%, 40% and 50% GFP positive cells)
B2	+ (refer to approximately 5%, 10%, 20%, 30%, 40% and 50% GFP positive cells)
B3	L363 (+/-) (refer to approximately 5%, 10%, 20%, 30%, 40% and 50% GFP positive cells)
B4	L363 (+/-) (refer to approximately 5%, 10%, 20%, 30%, 40% and 50% GFP positive cells)
B5	L363 (4+) (refer to approximately 5%, 10%, 20%, 30%, 40% and 50% GFP positive cells)
